From IntAct's records for PubMed 31260151

B1: Serine protease HTRA3 (Homo sapiens), P83110-2 (parent)
chain: MQARALLLAALAALALAREPPAAPCPARCDVSRCPSPRCPGGYVPDLCNCCLVCAASEGEPCGGPLDSPCGESLECVRGLCRCRWSHAVCGTDGHTYANVCALQAASRRALQLSGTPVRQLQKGACPLGLHQLSSPRYKFNFIADVVEKIAPAVVHIELFLRHPLFGRNVPLSSGSGFIMSEAGLIITNAHVVSSNSAAPGRQQLKVQLQNGDSYEATIKDIDKKSDIATIKIHPKKKLPVLLLGHSADLRPGEFVVAIGSPFALQNTVTTGIVSTAQREGRELGLRDSDMDYIQTDAIINYGNSGGPLVNLDGEVIGINTLKVTAGISFAIPSDRITRFLTEFQDKQIKAPSLAVH
B2: Serine protease HTRA3 (Homo sapiens), P83110-1 (parent)
chain: MQARALLLAALAALALAREPPAAPCPARCDVSRCPSPRCPGGYVPDLCNCCLVCAASEGEPCGGPLDSPCGESLECVRGLCRCRWSHAVCGTDGHTYANVCALQAASRRALQLSGTPVRQLQKGACPLGLHQLSSPRYKFNFIADVVEKIAPAVVHIELFLRHPLFGRNVPLSSGSGFIMSEAGLIITNAHVVSSNSAAPGRQQLKVQLQNGDSYEATIKDIDKKSDIATIKIHPKKKLPVLLLGHSADLRPGEFVVAIGSPFALQNTVTTGIVSTAQREGRELGLRDSDMDYIQTDAIINYGNSGGPLVNLDGEVIGINTLKVTAGISFAIPSDRITRFLTEFQDKQIKDWKKRFIGIRMRTITPSLVDELKASNPDFPEVSSGIYVQEVAPNSPSQRGGIQDGDIIVKVNGRPLVDSSELQEAVLTESPLLLEVRRGNDDLLFSIAPEVVM

Variants of: B1
Details: with xiap_human XIAP
Target sequence in this assay (P98170 whole entry): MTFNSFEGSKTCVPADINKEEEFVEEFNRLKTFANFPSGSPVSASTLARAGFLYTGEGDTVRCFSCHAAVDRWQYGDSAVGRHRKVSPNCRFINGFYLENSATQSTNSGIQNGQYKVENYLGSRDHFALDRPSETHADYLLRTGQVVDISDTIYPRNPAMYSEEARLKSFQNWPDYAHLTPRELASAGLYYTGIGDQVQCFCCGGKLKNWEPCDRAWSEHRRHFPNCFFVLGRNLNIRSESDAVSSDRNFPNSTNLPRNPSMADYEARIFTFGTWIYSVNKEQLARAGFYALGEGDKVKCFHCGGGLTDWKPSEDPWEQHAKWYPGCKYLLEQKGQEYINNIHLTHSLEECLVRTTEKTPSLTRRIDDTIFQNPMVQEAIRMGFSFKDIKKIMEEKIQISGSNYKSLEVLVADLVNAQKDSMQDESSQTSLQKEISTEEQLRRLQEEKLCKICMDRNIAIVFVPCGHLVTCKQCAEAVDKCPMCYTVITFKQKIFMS

Variant	effect of a mutation on the interaction
S305A	decreasing interaction strength

Variants of: B2
Details: with xiap_human XIAP
Target sequence in this assay (P98170 whole entry): as above

Variant	effect of a mutation on the interaction
S305A	decreasing interaction strength
